The target of the experiment is receptors in brush border membrane vesicles produced from Spodoptera frugiperda (fall armyworm, FAW). Put plainly: competitive displacement of 0.5 nM ^125I Cry1Be (competitor) from FAW BBMV.

Some results are limits rather than exact numbers.

With “Cry1Fa protein from Bacillus thuringiensis (from UniProt Q03746 28-605) (ligand)”, the concentration at which displacement of ^125I Cry1Be is effective was greater than 100 nM.

The values are drawn from patent publication US20120311746A1.
